From patent publication US20240117054A1 (DRAGONFLY THERAPEUTICS, published 2024)

T1: human FLT3 (hFLT3) expressed on cells (human, UniProt P36888 27-993)
T1 construct: whole, on cells; One molecule for all cell lines that carry human FLT3; also called RMA-hFLT3; FLT3 on REH cells
T1 sequence (looked up): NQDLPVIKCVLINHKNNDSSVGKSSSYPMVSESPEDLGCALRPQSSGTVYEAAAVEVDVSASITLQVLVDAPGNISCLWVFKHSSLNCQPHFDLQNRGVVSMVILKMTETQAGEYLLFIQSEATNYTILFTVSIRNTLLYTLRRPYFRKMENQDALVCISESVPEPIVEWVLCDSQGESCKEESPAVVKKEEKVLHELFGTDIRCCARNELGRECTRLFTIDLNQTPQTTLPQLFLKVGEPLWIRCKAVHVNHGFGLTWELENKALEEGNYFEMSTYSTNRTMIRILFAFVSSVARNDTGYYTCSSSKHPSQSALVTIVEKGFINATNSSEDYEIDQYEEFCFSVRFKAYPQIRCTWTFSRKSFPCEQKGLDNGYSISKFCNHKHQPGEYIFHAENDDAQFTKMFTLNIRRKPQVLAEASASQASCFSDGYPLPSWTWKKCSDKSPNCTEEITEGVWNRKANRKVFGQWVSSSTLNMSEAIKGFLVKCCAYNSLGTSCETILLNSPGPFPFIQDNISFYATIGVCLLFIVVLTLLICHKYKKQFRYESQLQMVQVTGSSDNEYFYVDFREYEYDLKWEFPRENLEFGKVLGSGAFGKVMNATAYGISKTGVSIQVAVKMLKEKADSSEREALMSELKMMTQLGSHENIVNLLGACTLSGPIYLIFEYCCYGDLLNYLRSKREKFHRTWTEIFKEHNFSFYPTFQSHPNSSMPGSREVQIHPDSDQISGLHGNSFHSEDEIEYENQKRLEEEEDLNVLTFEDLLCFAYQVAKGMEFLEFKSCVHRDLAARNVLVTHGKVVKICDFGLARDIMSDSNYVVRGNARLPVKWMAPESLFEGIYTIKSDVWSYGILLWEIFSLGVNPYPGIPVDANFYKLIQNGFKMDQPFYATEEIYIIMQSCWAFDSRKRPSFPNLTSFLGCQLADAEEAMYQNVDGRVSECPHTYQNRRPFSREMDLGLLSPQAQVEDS

T2: hFLT3-His fusion protein (human, UniProt P36888 27-541, limits assumed)
T2 construct: Soluble recombinant antigen used for immunisation, ELISA, SPR and BLI binning; also called recombinant hFLT3 protein; not shown: His tag
T2 sequence (looked up): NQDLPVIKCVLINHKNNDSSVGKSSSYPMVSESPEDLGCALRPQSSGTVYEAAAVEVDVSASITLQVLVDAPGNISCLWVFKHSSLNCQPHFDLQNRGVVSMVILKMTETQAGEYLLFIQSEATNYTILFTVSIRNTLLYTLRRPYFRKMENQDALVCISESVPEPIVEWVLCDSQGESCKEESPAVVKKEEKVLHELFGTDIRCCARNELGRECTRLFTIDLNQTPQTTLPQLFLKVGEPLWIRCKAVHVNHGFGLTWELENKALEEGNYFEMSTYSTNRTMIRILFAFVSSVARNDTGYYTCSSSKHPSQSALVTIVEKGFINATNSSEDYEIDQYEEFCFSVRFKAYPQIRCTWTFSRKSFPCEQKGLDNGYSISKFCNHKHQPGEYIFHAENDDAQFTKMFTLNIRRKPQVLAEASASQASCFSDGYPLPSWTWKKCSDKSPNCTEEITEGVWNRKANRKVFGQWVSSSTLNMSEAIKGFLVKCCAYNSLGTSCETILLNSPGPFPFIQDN

T3: cynomolgus monkey FLT3 (cFLT3) expressed on RMA cells (cynomolgus monkey, UniProt A0A2K5VQ48 27-993)
T3 construct: whole, on cells; also called RMA-cFLT3; cynomolgus FLT3
T3 sequence: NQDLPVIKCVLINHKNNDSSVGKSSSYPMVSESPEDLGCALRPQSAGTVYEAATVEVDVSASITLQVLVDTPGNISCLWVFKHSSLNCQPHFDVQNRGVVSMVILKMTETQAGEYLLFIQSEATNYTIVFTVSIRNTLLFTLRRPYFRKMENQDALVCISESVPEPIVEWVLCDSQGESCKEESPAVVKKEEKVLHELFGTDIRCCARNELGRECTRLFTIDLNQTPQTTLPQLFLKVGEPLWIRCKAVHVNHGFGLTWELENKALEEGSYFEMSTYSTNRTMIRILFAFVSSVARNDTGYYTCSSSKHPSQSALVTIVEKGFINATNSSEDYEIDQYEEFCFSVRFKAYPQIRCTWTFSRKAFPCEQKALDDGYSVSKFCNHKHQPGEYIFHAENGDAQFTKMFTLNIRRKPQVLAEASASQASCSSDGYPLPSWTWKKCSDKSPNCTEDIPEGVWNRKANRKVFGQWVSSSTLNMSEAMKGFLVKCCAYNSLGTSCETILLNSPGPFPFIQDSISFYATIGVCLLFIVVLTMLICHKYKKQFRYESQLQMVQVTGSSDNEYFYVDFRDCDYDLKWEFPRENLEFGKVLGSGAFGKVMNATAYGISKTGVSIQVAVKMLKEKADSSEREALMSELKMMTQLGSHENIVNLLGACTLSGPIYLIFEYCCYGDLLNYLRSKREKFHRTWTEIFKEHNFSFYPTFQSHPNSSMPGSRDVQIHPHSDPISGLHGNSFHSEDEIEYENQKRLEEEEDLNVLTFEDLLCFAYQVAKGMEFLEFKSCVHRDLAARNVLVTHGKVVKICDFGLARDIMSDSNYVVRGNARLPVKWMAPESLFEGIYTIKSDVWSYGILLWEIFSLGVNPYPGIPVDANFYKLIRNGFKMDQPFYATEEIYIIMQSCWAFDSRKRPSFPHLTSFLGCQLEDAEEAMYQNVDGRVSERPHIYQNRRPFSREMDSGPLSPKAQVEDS


What was measured:
[1] = molecular target: T1, human FLT3 (hFLT3) expressed on cells; assay: flow cytometry, purified mAb on RMA-hFLT3 cells
hFLT3-His fusion protein = molecular target: T2, hFLT3-His fusion protein; assay: SPR, purified murine subclone mAb, hFLT3-His
[2] = molecular target: T3, cynomolgus monkey FLT3 (cFLT3) …; assay: flow cytometry, purified mAb on RMA-cFLT3 cells
[3] = molecular target: T1, human FLT3 (hFLT3) expressed on cells; assay: flow cytometry, purified mAb on SEM cells
[4] = molecular target: T1, human FLT3 (hFLT3) expressed on cells; assay: cell-based or functional assay

Binder | EC50 [1] | Max MFI [1] | Kd (hFLT3-His fusion protein) | koff (hFLT3-His fusion protein) | kon (hFLT3-His fusion protein) | EC50 [2] | Max MFI [2] | EC50 [3] | Max MFI [3] | pFLT3 levels (pFLT3 ELISA, EOL-1 cells) [4] | binding result [2]
12H10.G7 (antibody, V domains shown, Purified murine mAb from a hybridoma subclone) VH: EVQLQESGPELVKPGASVKMSCKASGYTFTRYVMHWVKQRPGQGLEWIGFINPYNDDTKYNEKFKGKATLTSDKSSSTAYMELSSLTSEDSAVYHCARWRQLGSLDSWGQGTTLTVSS VL: NIVLTQSPASLAVSLGQRATISCRASESVDTYGSSFVHWYQQKPGQPPKLLIYLASNLESGVPARFSGSGSRSDFTLTIDPVEADDAATYYCQQNNEEPWTFGGGTKLEIK | 0.36 nM | 1140 MFI | 5.4 nM | 0.00055 s⁻¹ | 100000 M⁻¹ s⁻¹ | 0.94 nM | 5260 MFI | 3.2 nM | 2830 MFI |  | 
4A4.A3 (antibody, V domains shown, Purified murine mAb from a hybridoma subclone) VH: QVTLKESGPGILQPSQTLSLTCSFSGFSLTTYGMGVGWIRQPSGKGLEWLANIWFNDNKYYNSTLKSRLTISKDTSNNQVFLKISSVDTTDTATYYCAQITTVVGTFDYWGQGSPLTVSP VL: RIVMTQSPTTMAASPGEKITITCSASSSISSIYLHWYQQKPGFSPKLLIFRTSDLASGVPPRFGGSGSGTSYSLTIGTMEAEDVATYYCQQGSSFPRTFGGGTKLEIK | 0.72 nM | 1020 MFI | 7.3 nM | 0.00082 s⁻¹ | 110000 M⁻¹ s⁻¹ | 1.07 nM | 5570 MFI | 3.29 nM | 2350 MFI |  | 
4H2.E3 (antibody, V domains shown, Purified murine mAb from a hybridoma subclone) VH: EVQLQESGPELVKPGASVKMSCKASGYTFTSYLMHWMKQKPGQGLEWIGYINPYSDGIKYNEKFRDKATLTSDKSSNTAYMELSSLTSEDSAVYYCAHSSGYVGYAMDYWGQGTSVTVSS VL: GIVMTQTTPSVPVTPGESVSISCRSSKSLLHSNGNTYLYWFLQRPGQSPQLLIYRMSNLASGVPDRFSGSGSGTTFTLRISRVEAEDVGVYYCMQHLEYPFTFGSGTKLEIK | 0.66 nM | 696 MFI | 17.6 nM | 0.001 s⁻¹ | 57000 M⁻¹ s⁻¹ | 1.56 nM | 3450 MFI | 7.57 nM | 1510 MFI |  | 
1A2.A3 (antibody, V domains shown, Purified murine mAb from a hybridoma subclone) VH: EVQLQESGPELVKPGASVKISCKASGYSFTGYYIHWVKQSPEESLEWIGEIYPNTGITTYNQKFTAKATLTVDKSSNTAYMQLKSLTSEDSAVYYCTRWGDYYGRDYWGQGTSVTVSS VL: DIVLTQSPASLAVSLGQRATISCRASETVDTHGNSFMHWYQQKPGQPPKLLIYRASNLESGIPARFSGSGSRTDFTLTINPVEADDVATYYCQQSNEDPRTFGGGTKLEIK | 0.8 nM | 499 MFI | 8.5 nM | 0.00089 s⁻¹ | 110000 M⁻¹ s⁻¹ | 1.82 nM | 2830 MFI | 5.47 nM | 1360 MFI |  | 
11F4.B9 (antibody, V domains shown, Purified murine mAb from a hybridoma subclone) VH: EVQLQESGPELVKPGASVKISCKASGYSFTGYYIHWVKQGPEKSLEWIGEIIPSTGSTIYNQKFKAKATLTVDKSSSTAYLQLKSLTSEDSAVYYCERWGDYYGRDYWGQGTSVTVSS VL: DIVLTQSPASLAVSLGQRATISCRASESVDIYGNSFMHWYQQKPGQPPKLLIYRASNLESGIPARFSGSGSRTDFTLTINPVEADDVATYYCQQSNEDPRTFGGGTKLEIK | 0.53 nM | 493 MFI | 1.7 nM | 0.00025 s⁻¹ | 150000 M⁻¹ s⁻¹ | 1.23 nM | 2590 MFI | 2.43 nM | 1140 MFI |  | 
12C9.E5 (antibody, V domains shown, Purified murine mAb from a hybridoma subclone) VH: EVQLQESGAELVRPGASVKLSCKASGYIFTDYEIHWVKQTPVHGLEWIGAIDPETGITAYSQKFKGKATLTTDTSSSTAYMEFRSLTSEDSAVYYCTRGGLLYWGQGTSVTVSS VL: DVVMTQTPLSLSVTIGQPASISCKSSQSLLYSDGETYLNWLQQRPGQSPKRLMYQVSKLDPGIPDRFSGSGSETDFTLKISRVEAEDLGIYYCLQGTFYPHTFGGGTKLEIK |  |  | 18.7 nM | 0.00063 s⁻¹ | 34000 M⁻¹ s⁻¹ |  |  |  |  |  | no binding

Further lines, results first:

EC50 [1] | Max MFI [1] | Kd (hFLT3-His fusion protein) | koff (hFLT3-His fusion protein) | kon (hFLT3-His fusion protein) | EC50 [2] | Max MFI [2] | EC50 [3] | Max MFI [3] | pFLT3 levels (pFLT3 ELISA, EOL-1 cells) [4] | binding result [2] | Binder
~2.07 nM | 415 MFI | 15.1 nM | 0.0019 s⁻¹ | 130000 M⁻¹ s⁻¹ | 1.25 nM | 1780 MFI | ~1.07 nM | 1960 MFI |  |  | 14A5.E8 (antibody, V domains shown, Purified murine mAb from a hybridoma subclone) VH: EVQLQESGAELVQPGASVRLSCKASGYTFTSYWINWVKQRPGQGLEWIGNIYPGSSIINYNENFKNRATLTVDTSSSTAYMQLSSLTSDDSAVYYCARRVVYLYFDYWGQGTTLTVSS VL: QIVLTQSPAIMSASPGEKVTMTCSASSSVSYMHWYQQKSGTSPKRWIYDTSKLASGVPARFSGSGSGTSYSLTISSMEAEDAATYYCQQWTSKSPTFGGGTKLEIK
 |  |  |  |  |  |  |  |  | 3 fold |  | FLT3-ligand (ligand, human, UniProt P49771 27-185, looked up) TQDCSFQHSPISSDFAVKIRELSDYLLQDYPVTVASNLQDEELCGGLWRLVLAQRWMERLKTVAGSKMQGLLERVNTEIHFVTKCAFQPPPSCLRFVQTNISRLLQETSEQLVALKPWITRQNFSRCLELQCQPDSSTLPPPWSPRPLEATAPTAPQPP
0.41 nM | 1410 MFI | 10.5 nM | 0.00048 s⁻¹ | 45000 M⁻¹ s⁻¹ | 0.82 nM | 6510 MFI | ~1.13 nM | 3860 MFI |  |  | 15A11.C8 (antibody, V domains shown, Purified murine mAb from a hybridoma subclone) VH: EVQLQESGGGLVKTGGSRKLSCAASGFTFSDYGMHWVRHTPEKGLEWVVYISSGGNTIFYTDTVKGRFTISRDNAKNTLFLQMTSLRSEDTAVYFCVRQGYYYAMDYWGQGASVTVSS VL: DIQMTQTTSSLSASLGDRVTIRCRASQDITNYLNWYQQKPDGAVKLLISYTSILQSGVPSRFSGSGSGTDYSLTISNLEQGDVATYFCQQGSSLPWTFGGGTKLEIK
